Patent publication US20170226207A1 (Astellas, published 2017)
Changes are numbered by the printed parent chain.

T1: human Igβ on human B cells (human, UniProt P40259 29-229)
T1 sequence (looked up): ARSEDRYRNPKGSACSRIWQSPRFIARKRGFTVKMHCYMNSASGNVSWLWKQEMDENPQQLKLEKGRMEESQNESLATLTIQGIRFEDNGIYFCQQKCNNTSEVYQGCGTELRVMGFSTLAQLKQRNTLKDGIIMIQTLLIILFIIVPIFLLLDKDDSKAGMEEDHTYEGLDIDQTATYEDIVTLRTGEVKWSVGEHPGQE

T2: monkey Igβ-Flag protein (monkey)
T2 chain: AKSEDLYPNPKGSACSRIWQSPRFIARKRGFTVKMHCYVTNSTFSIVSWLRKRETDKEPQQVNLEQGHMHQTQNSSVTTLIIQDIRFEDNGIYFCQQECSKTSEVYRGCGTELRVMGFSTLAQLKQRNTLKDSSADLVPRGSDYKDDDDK

T3: human Igβ-Flag protein (human, UniProt P40259 29-159, limits assumed)
T3 construct: Expressed in FreeStyle 293 cells, purified from culture supernatant with anti-Flag M2 gel; not shown: Flag tag
T3 sequence (looked up): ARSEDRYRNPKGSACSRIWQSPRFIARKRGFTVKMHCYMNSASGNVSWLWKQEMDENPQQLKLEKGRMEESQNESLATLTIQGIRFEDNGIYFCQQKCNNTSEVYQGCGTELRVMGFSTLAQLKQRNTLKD

B1: humanized antibody CL6_40m12_DDW (antibody, human IgG1, kappa, V domains shown)
VH: EVQMVESGGGLVQPGGSLRLSCAVSGFSLSSYSVHWVRQAPGKGLEWVAGIWSGGSIHYTPALSSRFTVSRDDSKNTVYLQMNSLRAEDTAVYYCARYDRYETYAMDYWGQGTLVTVSS
VL: DIQLTQSPSSLSASVGDRVTITCKASQSVDYDGDSYMNWYQQKPGKAPKLLIYAASNLESGVPSRFSGSGSGTDFTLTISSLQPEDFATYYCQQSNEDPLTFGQGTKVEIKR
notes: Humanized anti-human Igβ antibody
B2: humanized antibody CL6_40m14_DDW (antibody, human IgG1, kappa, V domains shown)
VH: QVQMQESGPGLVRPSQTLSLTCTVSGFSLSSYSVHWVRQPPGRGLEWIGGIWSGGSIHYTPALSSRVTVLRDTSKNQVSLRLSSVTAADTAVYYCARYDRYETYAMDYWGQGSLVTVSS
VL: B1 VL with L77F, F87I
modifications: pyroglutamylation at the N terminal of the heavy chain in most of the purified antibody (glutamine of amino acid number 1 modified to pyroglutamic acid)
notes: as for B1
B3: humanized antibody CL6_40m16_DDW (antibody, human IgG1, kappa, V domains shown)
VH: B1 VH with M4L, V37F, Q39K, V48L, A49G, F67L, D73I
VL: B1 VL with Q3V
notes: as for B1

Target: T1, human Igβ on human B cells
Experiment: cell-based or functional assay

Row | proliferation rate of human B cells (anti-IgM antibody-induced) at 30 µg/mL antibody [%] | Binder
1 | 2.8 | B1
2 | 20.2 | B2
3 | 23.2 | B3

Target: T2, monkey Igβ-Flag protein
Experiment: antigen ELISA, Igβ-Flag coated on plate, chemiluminescence
Description: (§1) In order to measure the antigen binding activity of the humanized antibody, antigen ELISA was used. The human Igβ-Flag protein acquired in Example 1 was prepared with a tris-buffered saline (TBS; Wako Pure Chemical Industries, Ltd.) so as to have a concentration of 5000 ng/mL, added to a NUNC MaxiSorp white 384 plate (Maxisorp 384 plate: Nunc Corporation) by an amount of 15 μL per well, and then solidified at room temperature for 1 hour. The resultant was washed with TBS-T (0.05% Tween-20 containing TBS: Wako Pure Chemical Industries, Ltd.) twice, 120 μL of a blocking agent (Blocking One: Nacalai tesque, Inc.) was added thereto, the resultant was left at room temperature for 1 hour, and the solution was removed. A dilution series (8 steps with a final concentration of 0.46 ng/mL to 1 μg/mL) of respective humanized antibodies obtained in Example 3 was prepared using a dilute solution obtained by adding the same amount of the blocking agent and TBS and then added thereto by an amount of 15 μL. The resultant was left at room temperature for 1 hour, washed with a TBS-T washing liquid three times, and 20 μL of an horseradish peroxidase (HRP)-labeled rabbit anti-human Ig antibody (Dako Ltd.) which had been diluted 3000-fold with a diluted solution was added thereto. Thereafter, the resultant was left at room temperature for 1 hour and then washed with a TBS-T washing liquid three times. Next, 30 μL of BM-Chemiluminescence ELISA Substrate (POD) (Roche Diagnostics Inc.) which is a chemiluminescence detection reagent was added thereto, and the amount of chemiluminescence thereof was measured by an EnVision counter (PerkinElmer, Co., Ltd.). Using the same method, antigen ELISA assay was performed using the monkey Igβ-Flag protein acquired in Example 1. When the binding activities in respective concentrations of the test antibodies were calculated, the measuring amount of a well to which a test antibody was not added was set to 0% and the convergence value of the maximum activity of the test antibody was set to 100%. The calculated binding activities were analyzed and the EC50 values of the test antibodies were calculated by fitting a curve.

Row | EC50 [µg/mL] | Binder
4 | 0.183 | B1
5 | 0.106 | B2
6 | 0.118 | B3

Target: T3, human Igβ-Flag protein
Experiment: as above
Description: as §1

Row | EC50 [µg/mL] | Binder
7 | 0.128 | B1
8 | 0.1 | B2
9 | 0.132 | B3
